# Test results published in IntAct's records for PubMed 17043237.
# B1: Pre-B-cell leukemia transcription factor-interacting protein 1 (Homo sapiens), Q96AQ6-1 (parent)
# chain: MASCPDSDNSWVLAGSESLPVETLGPASRMDPESERALQAPHSPSKTDGKELAGTMDGEGTLFQTESPQSGSILTEETEVKGTLEGDVCGVEPPGPGDTVVQGDLQETTVVTGLGPDTQDLEGQSPPQSLPSTPKAAWIREEGRCSSSDDDTDVDMEGLRRRRGREAGPPQPMVPLAVENQAGGEGAGGELGISLNMCLLGALVLLGLGVLLFSGGLSESETGPMEEVERQVLPDPEVLEAVGDRQDGLREQLQAPVPPDSVPSLQNMGLLLDKLAKENQDIRLLQAQLQAQKEELQSLMHQPKGLEEENAQLRGALQQGEAFQRALESELQQLRARLQGLEADCVRGPDGVCLSGGRGPQGDKAIREQGPREQEPELSFLKQKEQLEAEAQALRQELERQRRLLGSVQQDLERSLQDASRGDPAHAGLAELGHRLAQKLQGLENWGQDPGVSANASKAWHQKSHFQNSREWSGKEKWWDGQRDRKAEHWKHKKEESGRERKKNWGGQEDREPAGRWKEGRPRVEESGSKKEGKRQGPKEPPRKSGSFHSSGEKQKQPRWREGTKDSHDPLPSWAELLRPKYRAPQGCSGVDECARQEGLTFFGTELAPVRQQELASLLRTYLARLPWAGQLTKELPLSPAFFGEDGIFRHDRLRFRDFVDALEDSLEEVAVQQTGDDDEVDDFEDFIFSHFFGDKALKKRSGKKDKHSQSPRAAGPREGHSHSHHHHHRG
# Variants of: B1
# Settings: with esr1_human ESR1, P03372
# Sequence of esr1_human ESR1, P03372 (P03372 whole entry): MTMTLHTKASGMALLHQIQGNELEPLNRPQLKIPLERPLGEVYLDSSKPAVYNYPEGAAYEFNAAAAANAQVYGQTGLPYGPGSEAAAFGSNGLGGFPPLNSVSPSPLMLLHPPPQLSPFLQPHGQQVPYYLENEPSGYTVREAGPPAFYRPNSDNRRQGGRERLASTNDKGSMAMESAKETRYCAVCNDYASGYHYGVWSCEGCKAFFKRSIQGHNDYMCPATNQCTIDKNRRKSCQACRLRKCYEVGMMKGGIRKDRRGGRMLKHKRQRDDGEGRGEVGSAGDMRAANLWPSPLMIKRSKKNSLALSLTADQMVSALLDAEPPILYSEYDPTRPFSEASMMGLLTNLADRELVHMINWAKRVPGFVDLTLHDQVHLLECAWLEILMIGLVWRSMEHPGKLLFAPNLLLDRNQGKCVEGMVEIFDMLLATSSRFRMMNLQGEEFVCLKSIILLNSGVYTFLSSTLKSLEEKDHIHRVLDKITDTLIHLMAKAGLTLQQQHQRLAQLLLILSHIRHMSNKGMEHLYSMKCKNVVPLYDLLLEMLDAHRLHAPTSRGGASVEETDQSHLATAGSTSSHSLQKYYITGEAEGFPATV
row,Variant,effect of a mutation on the interaction
1,L615A;L618A;L619A,disrupting interaction strength
